Reference: patent publication US20210130452A1 (Merck KGaA, published 2021)

T1: human IL-17F (human, UniProt Q96PD4 31-163, biotinylated with Sulfo-NHS-LC-Biotin in the AlphaScreen assays only)
T1 construct: also called hIL-17F; recombinant human IL-17F
T1 sequence: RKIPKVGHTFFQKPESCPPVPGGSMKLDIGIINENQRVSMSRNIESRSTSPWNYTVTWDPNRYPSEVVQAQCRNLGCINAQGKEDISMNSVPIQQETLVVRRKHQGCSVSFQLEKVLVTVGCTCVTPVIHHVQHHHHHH


What was measured:
human IL-17A [1] = molecular target: T2, human IL-17A (human, UniProt Q16552 24-155, biotinylated with Sulfo-NHS-LC-Biotin in the AlphaScreen assays only); test: AlphaScreen competition, hIL-17A - IL-17RA-Fc;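 also: receptor Fc-fusion plus Acceptor and streptavidin Donor beads incubated with the mixture for 1 h at room temperature before reading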
T2 construct: also called hIL-17A; recombinant human IL-17A
T2 sequence (Q16552 other isoform, or with tags, fused parts or gaps): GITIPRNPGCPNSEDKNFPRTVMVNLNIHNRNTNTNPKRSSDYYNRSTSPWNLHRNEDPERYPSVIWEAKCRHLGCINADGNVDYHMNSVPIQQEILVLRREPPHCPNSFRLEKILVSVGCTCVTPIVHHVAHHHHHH
Procedure: (§1) To this mixture, the IL-17RA or IL-17RC Fc-fusions, Acceptor beads and the streptavidin Donor beads were added and further incubated for 1 hour at RT.

human IL-17A [2] = molecular target: T2, human IL-17A; test: cell-based or functional assay
human IL-17A [3] = molecular target: T2, human IL-17A; test: SPR Biacore, hIL-17A on chip; purified protein
human IL-17A [4] = molecular target: T2, human IL-17A; test: AlphaScreen competition, hIL-17A - IL-17RC-Fc;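 also: Read-out after 1 h at room temperature with the receptor Fc-fusion, Acceptor beads and streptavidin-coated Donor beads present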
Procedure: as §1

[5] = molecular target: T3, human IL-17A/F heterodimer (human, UniProt Q16552 24-155; Q96PD4 31-163, limits assumed, biotinylated with Sulfo-NHS-LC-Biotin in the AlphaScreen assays only); test: SPR Biacore, hIL-17A/F on chip; purified protein
T3 construct: also called hIL-17A/F
T3 sequence (Q16552 24-155 limits assumed, chain 1 of 2, one chain of several): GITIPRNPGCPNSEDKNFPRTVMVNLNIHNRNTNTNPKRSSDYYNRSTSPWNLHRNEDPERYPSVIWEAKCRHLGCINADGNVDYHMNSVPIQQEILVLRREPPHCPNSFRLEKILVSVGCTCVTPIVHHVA

human IL-17F = molecular target: T1, human IL-17F; test: SPR Biacore, hIL-17F on chip; periplasmic extract (*); NB = no binding
[6] = molecular target: T3, human IL-17A/F heterodimer; test: cell-based or functional assay
[7] = molecular target: T3, human IL-17A/F heterodimer; test: AlphaScreen competition, hIL-17A/F - IL-17RA-Fc
Procedure: as §1

[8] = molecular target: T3, human IL-17A/F heterodimer; test: AlphaScreen competition, hIL-17A/F - IL-17RC-Fc
Procedure: as §1

| IC50 (human IL-17A [1]) [nM] | IL-17A-induced IL-6 production in HT-1080 cells, Emax (human IL-17A [2]) [%] | IL-17A-induced IL-6 production in HT-1080 cells, IC50 (human IL-17A [2]) [nM] | koff (human IL-17A [3]) [s⁻¹] | IC50 (human IL-17A [4]) [nM] | koff [5] [s⁻¹] | binding result (human IL-17F) | IL-17A/F-induced IL-6 production in HT-1080 cells, Emax [6] [%] | IL-17A/F-induced IL-6 production in HT-1080 cells, IC50 [6] [nM] | IC50 [7] [nM] | IC50 [8] [nM] | Binder |
| --- | --- | --- | --- | --- | --- | --- | --- | --- | --- | --- | --- |
| 0.126 | 103 | 8.8 | 0.00042 | 0.419 |  |  |  |  |  |  | 02A08 (VHH, Class 2 Nanobody (anti-IL-17A and IL-17A/F); not shown: c-myc, His6 tag) VHH: EVQLVESGGGVVQPGGSLRLSCADSERSFSFNAMGWFRQAPGKEREFVAAISATGDDTYYADSVKGRFAISRDTARNTVYLQMNSLKPEDTAVYYCGARVNFDGTVSYTNDYAYWGQGTQVTVSS |
| 0.084 | 101 | 4.2 | 0.0002 | 0.371 |  |  |  |  |  |  | 03C07 (VHH, Class 2 Nanobody (anti-IL-17A and IL-17A/F); not shown: c-myc, His6 tag) VHH: EVQLVESGGGLVQAGGSLRLSCAASGFTFDDYAIGWFRQAPGKEREAVSCFSSSDGSIYYADSVKGRFTISSDNAKNTVYLQMNSLKPEDTAVYYCAGGGGSYYYTQLNYCYDMDYWGKGTQVTVSS |
| 0.014 | 113 | 5.4 | 0.00018 | 0.217 | 0.00023 | no binding | 104 | 34.7 | 0.067 | 0.039 | 04G01 (VHH, Class 2 Nanobody (anti-IL-17A and IL-17A/F); also called IL17MS04G01; not shown: c-myc, His6 tag) VHH: EVQLVESGGGLVQAGGSQRLSCTASGTIVNIHVMGWYRQAPGKQRELVALIFSGGSADYADSVKGRFTISRDNAKNTVYLEMNSLKAEDTAVYYCAAEIGYYSGGTYYSSEAHWGQGTQVTVSS |
| 0.046 | 99 | 4 | 0.00012 | 0.323 | 0.00013 | no binding | 108 | 22.2 | 0.101 | 0.12 | 09G10 (VHH, Class 2 Nanobody (anti-IL-17A and IL-17A/F); not shown: c-myc, His6 tag) VHH: EVQLVESGGGLVQAGGSLRLSCAASDSVFTAKAVGWYRQPPGLQREWVAIITSGGKTNYADSSVKGRFTVSVDKVKNTVTLQMNSLKPEDTAVYYCYAQWMGRDYWGQGTQVTVSS |
| 0.081 | 98.5 | 4 | 0.00016 | 0.461 | 3.8e-05 |  | 106 | 28.1 | 0.14 | 0.039 | 11A06 (VHH, Class 2 Nanobody (anti-IL-17A and IL-17A/F); not shown: c-myc, His6 tag) VHH: EVQLVESGGGLVQPGESLRLSCKASGFSLDYYALGWFRQAPGKEREGISCITSSDASAYYTDSVKGRFTISRDNSKNTVYLQMNSLKTEDTAIYYCAAALLTCSSYYDAYTYWGQGTQVTVSS |
|  |  |  |  |  |  | no binding |  |  |  |  | 04B09 (VHH, Class 2 Nanobody (anti-IL-17A and IL-17A/F); not shown: c-myc, His6 tag) VHH: EVQLVESGGGLVQPGGSLRLSCAASGFTLGYYAIGWFRQAPGKEREGVSCDSSSDGDTYYANSVKGRFTISTDNGKNTVYLQMNSLKPEDTAVYYCATCTDWNYDYWGQGTQVTVSS |
| 0.051 | 104 | 2.7 | 8.5e-05 | 0.211 |  |  |  |  |  |  | 01A01 (VHH, Class 4 Nanobody (cross-reactive: anti-IL-17A, IL-17F and IL-17A/F); not shown: c-myc, His6 tag) VHH: EVQLVESGGGLVQAGGSLRLSCAASGFTFDDYDIGWFRQAPGKEREGVSCFTSSDGRTFYADSVKGRFTVSADNAKNTVYLQMNSLEPEDTAVYFCAAVNTFDESAYAAFACYDVVRWGQGTQVTVSS |
| 2.12 | 73 | 130 | 0.0079 | 4.8 |  |  |  |  |  |  | 11C08 (VHH, Class 4 Nanobody (cross-reactive: anti-IL-17A, IL-17F and IL-17A/F); not shown: c-myc, His6 tag) VHH: EVQLVESGGGLVQAGGSLRLSCAASGVIFRLNAMGWYRAAPGKQRELVAIIVNGGSTNYADSVKGRFTISRDSAKNAVYLQMNSLKPEDTAVYYCYYNIPGDVYWGQGTQVTVSS |
